These results are taken from paper PMC9352680, “A comprehensive thermodynamic model for RNA binding by the Saccharomyces cerevisiae Pumilio protein PUF4”.

T1: PUF4 RNA-binding domain (Saccharomyces cerevisiae, UniProt P25339 537-888)
T1 sequence: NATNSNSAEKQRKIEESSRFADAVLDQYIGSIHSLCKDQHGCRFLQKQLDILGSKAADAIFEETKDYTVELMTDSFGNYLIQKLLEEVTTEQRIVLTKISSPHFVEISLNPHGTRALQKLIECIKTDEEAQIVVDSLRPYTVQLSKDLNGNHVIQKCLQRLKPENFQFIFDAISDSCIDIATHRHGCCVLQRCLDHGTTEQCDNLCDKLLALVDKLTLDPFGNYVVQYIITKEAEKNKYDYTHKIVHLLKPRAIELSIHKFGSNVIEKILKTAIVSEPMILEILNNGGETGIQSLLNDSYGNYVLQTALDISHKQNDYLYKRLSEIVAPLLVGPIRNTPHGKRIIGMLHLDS

B1: Id_ii_S3_P3E.4_K3.3_C3.2_[C-2A]_[T-1A]_H3.3_A3.1_F3.1_T3.2_[T9C] (ssRNA)
RNA: ACAAACAAACACUAUACAACAAAC
B2: Id_ii_S3_P3E.4_K3.3_C3.2_[T-1C]_H3.3_A3.1_F3.1_T3.2_[A10T] (ssRNA)
RNA: ACAAACCCACACUAUAUUACAAAC
B3: Id_ii_S3_P4E.3_K4.2_C4.2_[C-2G]_[T-1C]_H4.2_A4.1_F4.1_T4.2_[G10C]_[T11A] (ssRNA)
RNA: ACAAACGCUAUAUAUUACAACAAAC
B4: Id_ii_S3_P3E.4_K3.3_C3.2_[C-2T]_H3.3_A3.1_F3.1_T3.2 (ssRNA)
RNA: ACAAACUUACACUAUAUAACAAAC
B5: Id_ii_S3_P4E.3_K4.2_C4.2_[C-2G]_[T-1G]_H4.2_A4.1_F4.1_T4.2_[G10A]_[T11G] (ssRNA)
RNA: ACAAACGGUAUAUAUUAAGACAAAC
B6: Id_ii_S3_P4E.3_K4.2_C4.2_[C-2G]_[T-1C]_H4.2_A4.1_F4.1_T4.2_[G10T]_[T11C] (ssRNA)
RNA: ACAAACGCUAUAUAUUAUCACAAAC
B7: Ib_S1_P5E.1_K5.1_C5.1_H5.1_A5.1_[T5G]_F5.1_[A10T]_T5.1 (ssRNA)
RNA: UCUCUUUGUAGUAUUUUCUCUU
B8: Id_ii_S3_P3E.4_K3.3_C3.2_[T-1G]_H3.3_A3.1_F3.1_T3.2 (ssRNA)
RNA: ACAAACCGACACUAUAUAACAAAC
B9: Id_ii_S3_P4E.3_K4.2_C4.2_[C-2G]_[T-1C]_H4.2_A4.1_F4.1_T4.2_[G10T] (ssRNA)
RNA: ACAAACGCUAUAUAUUAUUACAAAC
B10: Ib_S1_P5E.1_K5.1_C5.1_H5.1_A5.1_[T5A]_F5.1_[A10T]_T5.1 (ssRNA)
RNA: UCUCUUUGUAAUAUUUUCUCUU
B11: Ib_S1_P5E.1_K5.1_C5.1_H5.1_A5.1_[T5A]_F5.1_[A10C]_T5.1 (ssRNA)
RNA: UCUCUUUGUAAUAUUCUCUCUU
B12: Id_ii_S3_P3E.4_K3.3_C3.2_[C-2T]_[T-1G]_H3.3_A3.1_F3.1_T3.2_[A10T] (ssRNA)
RNA: ACAAACUGACACUAUAUUACAAAC
B13: Id_ii_S3_P3E.4_K3.3_C3.2_[C-2A]_[T-1C]_H3.3_A3.1_F3.1_T3.2_[T9G]_[A10C] (ssRNA)
RNA: ACAAACACACACUAUAGCACAAAC
B14: Id_ii_S3_P3E.4_K3.3_C3.2_[C-2T]_[T-1C]_H3.3_A3.1_F3.1_T3.2_[T9G]_[A10C] (ssRNA)
RNA: ACAAACUCACACUAUAGCACAAAC
B15: Ib_S1_P5E.1_K5.1_C5.1_H5.1_A5.1_[T6G]_F5.1_[A10C]_T5.1 (ssRNA)
RNA: UCUCUUUGUAUGAUUCUCUCUU
B16: Ib_S1_P5E.1_K5.1_C5.1_H5.1_A5.1_[T5C]_F5.1_[A10T]_T5.1 (ssRNA)
RNA: UCUCUUUGUACUAUUUUCUCUU
B17: Id_ii_S3_P3E.4_K3.3_C3.2_[C-2A]_H3.3_A3.1_F3.1_T3.2_[T9C]_[A10C] (ssRNA)
RNA: ACAAACAUACACUAUACCACAAAC
B18: Id_ii_S3_P3E.4_K3.3_C3.2_[C-2T]_[T-1A]_H3.3_A3.1_F3.1_T3.2 (ssRNA)
RNA: ACAAACUAACACUAUAUAACAAAC
B19: Id_ii_S3_P3E.4_K3.3_C3.2_H3.3_A3.1_F3.1_T3.2_[T9C] (ssRNA)
RNA: ACAAACCUACACUAUACAACAAAC
B20: Id_ii_S3_P4E.3_K4.2_C4.2_[C-2G]_[T-1C]_H4.2_A4.1_F4.1_T4.2_[G10A] (ssRNA)
RNA: ACAAACGCUAUAUAUUAAUACAAAC
B21: Id_ii_S3_P3E.4_K3.3_C3.2_H3.3_A3.1_F3.1_T3.2_[T9A] (ssRNA)
RNA: ACAAACCUACACUAUAAAACAAAC
B22: Id_ii_S3_P3E.4_K3.3_C3.2_H3.3_A3.1_F3.1_T3.2_[A10C] (ssRNA)
RNA: ACAAACCUACACUAUAUCACAAAC
B23: Id_ii_S3_P3E.4_K3.3_C3.2_[C-2A]_[T-1G]_H3.3_A3.1_F3.1_T3.2_[T9C] (ssRNA)
RNA: ACAAACAGACACUAUACAACAAAC
B24: Id_ii_S3_P4E.3_K4.2_C4.2_[C-2G]_[T-1A]_H4.2_A4.1_F4.1_T4.2_[G10A]_[T11A] (ssRNA)
RNA: ACAAACGAUAUAUAUUAAAACAAAC
B25: Id_ii_S3_P3E.4_K3.3_C3.2_[T-1C]_H3.3_A3.1_F3.1_T3.2_[T9G]_[A10C] (ssRNA)
RNA: ACAAACCCACACUAUAGCACAAAC
B26: Id_ii_S3_P3E.4_K3.3_C3.2_[C-2A]_H3.3_A3.1_F3.1_T3.2_[A10C] (ssRNA)
RNA: ACAAACAUACACUAUAUCACAAAC
B27: Id_ii_S3_P3E.4_K3.3_C3.2_[C-2A]_H3.3_A3.1_F3.1_T3.2_[A10T] (ssRNA)
RNA: ACAAACAUACACUAUAUUACAAAC
B28: Id_ii_S3_P3E.4_K3.3_C3.2_H3.3_A3.1_F3.1_T3.2_[T9A]_[A10T] (ssRNA)
RNA: ACAAACCUACACUAUAAUACAAAC
B29: Id_ii_S3_P3E.4_K3.3_C3.2_[C-2A]_[T-1C]_H3.3_A3.1_F3.1_T3.2_[A10C] (ssRNA)
RNA: ACAAACACACACUAUAUCACAAAC

The target of this data set is T1, PUF4 RNA-binding domain. Kind of data set: Mg; RNA-MaP; 20 mM Na-HEPES pH 7.4, 30 mM KOAc, 0.75 mM MgCl2, 0.1% Tween-20, 5% glycerol, 0.1 mg/mL BSA, 2 mM DTT; 25 C; 0.0125-409.6 nM protein. The note with it: tags: N-His6-TEV cleaved; C-SNAP kept, Cy3B-labelled; label: tethered on chip by stalled RNA polymerase.
A word on the Kd: it is the constant that tells how readily two partners part at equilibrium. In the case of B1, the Kd was greater than 2300 nM.

In turn, B2 displayed a dissociation constant Kd of 2120 nM.

Consider B3, for which the affinity, expressed as Kd, was 24.5 nM.

Regarding B4, the Kd was 968 nM.

In turn, B5 gave a Kd of 48.8 nM.

B6: binding was put at a Kd of 20.1 nM.

For B7, the Kd came to 101 nM.

For B8, the Kd is greater than 2300 nM.

The molecule B9 registered a Kd of 14.4 nM.

Molecule B10 had a Kd of 15 nM.

B11 came in with a Kd of 21.6 nM. The Kd values of the last two molecules are within 1.5-fold of each other.

Take B12: the Kd amounted to 1340 nM. This Kd is about 62-fold higher than that of the molecule before.

The molecule B13 yielded a Kd greater than 2300 nM.

B14 had a Kd greater than 2300 nM.

For B15, the Kd was 90 nM.

In the case of B16, the Kd came out at 10.2 nM.

As to B17, the equilibrium dissociation constant (Kd) came to 1760 nM.

As for B18, the Kd is greater than 2300 nM.

Regarding B19, the Kd turned out to be 1880 nM.

For B20, the Kd was determined as 19.9 nM.

Take B21: the Kd is greater than 2300 nM.

As to B22, the dissociation constant (Kd) amounted to 1760 nM.

The molecule B23 came in with a Kd greater than 2300 nM.

With B24, binding was put at a Kd of 74.6 nM.

The molecule B25 had a dissociation constant (Kd) greater than 2300 nM.

The molecule B26 returned a Kd of 1230 nM.

With B27, the affinity, expressed as Kd, was 556 nM.

Molecule B28 yielded a Kd greater than 2300 nM.

Regarding B29, the Kd was greater than 2300 nM.
